Each block holds one binder with its values, some of them ahead of it.
Key:
[1] = target: hyper-phosphorylated P301L mutant human 4R0N tau from rTg4510 mouse brain (64 and 70 kDa species; P3 / brain extract) (human) (UniProt P10636); assay: immunodepletion of rTg4510 brain extracts; western blot quantification (FIG. 14)
[2] = target: hyper-phosphorylated P301L mutant human 4R0N tau from rTg4510 mouse brain (64 and 70 kDa species; P3 / brain extract) (human) (UniProt P10636); assay: immunodepletion of rTg4510 brain extract with antibody on Protein G Dynabeads; western blot
[3] = target: hyper-phosphorylated P301L mutant human 4R0N tau from rTg4510 mouse brain (64 and 70 kDa species; P3 / brain extract) (human) (UniProt P10636); assay: MSD ELISA on immobilised P3; ratio of binding to Tg4510 over wt mouse material
[4] = target: hyper-phosphorylated P301L mutant human 4R0N tau from rTg4510 mouse brain (64 and 70 kDa species; P3 / brain extract) (human) (UniProt P10636); assay: cell-based or functional assay
[5] = target: hyper-phosphorylated P301L mutant human 4R0N tau from rTg4510 mouse brain (64 and 70 kDa species; P3 / brain extract) (human) (UniProt P10636); assay: fluid phase MSD ELISA: antibody mixed with rTg4510 P3 in solution, capture on C10-2 coated plates
[6] = target: aggregated tau in rTg4510 brain extract (Cisbio assay) (human) (UniProt P10636); assay: immunodepletion of rTg4510 brain extract with antibody on Protein G Dynabeads; Cisbio aggregation assay
Chain of aggregated tau in rTg4510 brain extract (Cisbio assay) (human) (P10636 other isoform, or with tags, fused parts or gaps): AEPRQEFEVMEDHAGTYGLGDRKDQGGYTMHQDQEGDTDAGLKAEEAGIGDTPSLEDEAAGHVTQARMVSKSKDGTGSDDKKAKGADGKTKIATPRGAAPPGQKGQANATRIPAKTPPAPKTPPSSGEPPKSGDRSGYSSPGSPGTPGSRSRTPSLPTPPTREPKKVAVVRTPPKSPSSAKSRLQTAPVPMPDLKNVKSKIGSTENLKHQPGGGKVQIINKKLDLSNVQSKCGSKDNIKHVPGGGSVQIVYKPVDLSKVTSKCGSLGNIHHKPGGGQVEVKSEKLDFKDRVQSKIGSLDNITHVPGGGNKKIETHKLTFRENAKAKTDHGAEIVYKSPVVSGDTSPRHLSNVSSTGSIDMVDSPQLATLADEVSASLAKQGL

Chain of hyper-phosphorylated P301L mutant human 4R0N tau from rTg4510 mouse brain (64 and 70 kDa species; P3 / brain extract) (human) (P10636 other isoform, or with tags, fused parts or gaps P301L P301L): as the sequence (P10636 other isoform, or with tags, fused parts or gaps) above

percent reduction of the 64 kDa band [1]: 90%
percent removed by immunodepletion [2]: 95%
B1: Antibody D1.2 (antibody, mouse IgG2b, kappa, V domains shown)
VH: QVQLQQSGAELVRPGASVTLSCKASGNTFTDYEIHWVKQTPVHGLEWIGAIDPETGNTAYNQKFKGKARLTADKSSSTAYMELRSLTSEDSAVYYCTRSRGFDYWGQGTTLTVSS
VL: DVMMTQTPLSLPVSLGDQASISCRSSQSLVHSNGNTYLHWHLQKPGQSPKFLIYKVSNRFSGVPDRFSGSGSGTDFTLKISRVEAEDLGVYFCSQSTHVPFTFGSGTKLEIKR

TG/wt [3]: 1 fold
B2: 4E4 antibody (antibody, from another filing, V domains shown)
VH: EVQLVESGGGLVQPGGSLKLSCAASGFNFNISAIHWVRQASGKGLEWVGRIRSKSHNYATLYAASLKGRFTLSRDDSRNTAYLQMSSLQTEDMAVYYCTVLSANYDTFDYWGQGTLVTVSS
VL: SYELTQPPSVSVSPGQTARISCFGDTLPKQYTYWYQQKPGQAPVLVIYKDTERPSGIPERFSGSSSGTTVTLTISGVQAEDEADYYCLSADNSATWVFGGGTKVTVL

percent reduction of the 64 kDa band [1]: 90%
percent removed by immunodepletion [2]: 95%
prevention of insoluble tau in HEK293 cells seeded with immunodepleted rTg4510 homogenate (western blot) [4]: 97%
prevention of tau aggregation in HEK293 cells seeded with immunodepleted rTg4510 homogenate (Cisbio assay) [4]: 88%
IC50 [5]: 20 nM
percent of tau aggregates removed [6]: 99%
TG/wt [3]: 118 fold
B3: Antibody C10-2 (murine) (antibody, mouse IgG1, kappa, V domains shown)
VH: QVQLQQSDAELVKPGASVKISCKASGYTFTDRTIHWVKQRPEQGLEWIGYIYPGDGSTKYNENFKGKATLTADKSSSTAYMQLNSLTSEDSAVYFCARRGAMDYWGQGTSVTVSS
VL: DVQMIQSPSSLSASLGDIVTMTCQASQGTSINLNWFQQKPGKAPKLLIYGASNLEDGVPSRFSGSRYGTDFTLTISSLEDEDMATYFCLQHTYLPFTFGSGTKLEIKR
